{"source": "the DeepSol protein solubility set", "data": [{"assay": "soluble on expression in E. coli; label from the status in PepcDB or PDB records", "values": [{"sequence": "TPTTFVHLFEWNWQDVAQECEQYLGPKGYAAVQVSPPNEHITGSQWWTRYQPVSYELQSRGGNRAQFIDMVNRCSAAGVDIYVDTLINHMAAGSGTGTAGNSFGNKSFPIYSPQDFHESCTINNSDYGNDRYRVQNCELVGLADLDTASNYVQNTIAAYINDLQAIGVKGFRFDASKHVAASDIQSLMAKVNGSPVVFQEVIDQGGEAVGASEYLSTGLVTEFKYSTELGNTFRNGSLAWLSNFGEGWGFMPSSSAVVFVDNHDNQRGHGGAGNVITFEDGRLYDLANVFMLAYPYGYPRVMSSYDFHGDTDAGGPNVPVHNNGNLECFASNWKCEHRWSYIAGGVDFRNNTADNWAVTNWWDNTNNQISFGRGSSGHMAINKEDSTLTATVQTDMASGQYCNVLKGELSADAKSCSGEVITVNSDGTINLNIGAWDAMAIHKNAKLNTSSAS", "soluble on expression in E. coli": "soluble"}, {"sequence": "TRTEISPGKAPFTIEHNQTVVTIGSCFSDMIGEKLQYYKFDVLANPFGTTFNPISIFQLLTIAIEKKFNPFPASLGEIWYDHQFHSEVSALSAEALHELTNERIAAATKSLARASCLVITLGSAWVYRHVETNTIVNNCHKQSGRYFKKELLSVKHILEDFETVYAKLKELNPSIKIIFTVSPVRHIKDTLQLNSVSKAILLSSVHYMCEQHTDCHYFPSYEIQMDDLRDYRYYAEDLIHPSKQAEKYIWKKLSNWVFSSDLLAALEEWDQLQKLLHHKAF", "soluble on expression in E. coli": "not soluble"}, {"sequence": "TSLKQNQLNLSTLLVNPEGPTLTQLNSVQSSERPLFLVHPIEGSTTVFHSLAAKLSVPTYGLQCTQAAPLDSIPNLAAYYIDCIKQVQPEGPYRIAGYSFGACVAFEMCSQLQAQQGPAPTHNNLFLFDGSHTYVLAYTQSYRAKMTPGCEAEAEAEALCFFIKQFLDVEHSKVLEALLPLKSLEDRVAASVDLITKSHHSLDRRELSFAAVSFYHKLRAADQYKPKAKYHGNVTLLRAKTGGTYGEDLGADYNLSQVCDGKVSVHIIEGDHRTLLEGSGLESIINIIHSS", "soluble on expression in E. coli": "soluble"}, {"sequence": "TSTMGNLQTAINDKSGTLASQNFLDADEQKRNAYNQAVSAAETILNKQTGPNTAKTAVEQALNNVNNAKHALNGTQNLNNAKQAAITAINGASDLNQKQKDALKAQANGAQRVSNAQDVQHNATELNTA", "soluble on expression in E. coli": "soluble"}, {"sequence": "TYKKPSDAELKRTLTEEQYQVTQNSATEYAFSHEYDHLFKPGIYVDVVSGEPLFSSADKYDSGSGWPSFTRPIDAKSVTEHDDFSYNMRRTEVRSHAADSHLGHVFPDGPRDKGGLRYSINGASLKFIPLEQMDAAGYGALKSKVK", "soluble on expression in E. coli": "soluble"}, {"sequence": "TYSLRTFFVRESAEGLTQGELMKLIKEIVENEDKRKPYSDQEIANILKEKGFKVARRTVAKYREMLGIPSSRERRI", "soluble on expression in E. coli": "soluble"}, {"sequence": "VADTDGHYRVRAITEISSFNETLGATFSDKEFDTIGGLVINKFGRLPKNGESITIEGFNFTVTRADSRRLHLLKVERIEPGVVEDADSHDSV", "soluble on expression in E. coli": "not soluble"}, {"sequence": "VAEKPYLKDPEVAAGYHRVAKRELPEPKIMEVPQRFAAYVRHEGYNRSIRNAWLILKAWASSENRDFSVQYGLHHSNPAWVELDKCRYVACMAIDKPLKVRGVVNQMTIPGGLHAVFRLTGVYGELLPQLSMVLEKWLPNSGFKQRSTPAYVHYHKNHFLSHDEAFELDFYLPISFF", "soluble on expression in E. coli": "not soluble"}, {"sequence": "VAKQRPDGIRAYEDPAGGWGALKALAVALKDQQLVVEGIPTLLKQNQPEGFDCPGCAWPDPKHTSAFEFCENGAKAVTWESTPKRVGPDFFAQHTVTSLWECSDYWLEDQGRLTHPMRYDAQTDKYEPVDWQVAFDDIAAKLDALDDPNQLELYTSGRASNEAAFLFQLFGRQFGTNNFPDCSNMCHEPTSVGLPRSIGIGKGTVTLDDFDKAELIISMGHNPGTNHPRMMTPLRNASRRGVKIIVLNPLKERALERFEAPQAPLEMATTSSTPIASCYFQVKVGGDAAALKGICKALVAADKVARAADLAPLLDHTFIVGHTAGFDALVDDLEGCSWSAIERASGLPRADMERIAADYAASNATIVCYGMGITQHVTGTANVQQIANLLLLKGNIGKPGAGICPLRGHSNVQGDRTVGITERPSEAFLDRLRDVFGFEPPRAFGHSVVDSIAAMRDGRAKAVICLGGNLAMAASDPQACFKGFRRLDLAVHLATKLNRTHLLTSKTTYLFPVLGRTDSDIQASGRQALTVEDSMSMVHASRGFLTPPSDQVRSEVAILAGIAKATLRSKSRVDWDALAGNYDLIRDAIEEVFPDFEAYNDRIRKPGGFQLPNSAAMRIWNTPTGKANFAIFAGLEEDETSTDRDVLRMTSLRAHDQYNTTIYGLNDRYRGVFGRRDVLFLNPKDLARLGFAEGDVVDVATALDYARPDRVVQALTLVSYNLPDGCCASYYPEIQPLVALEFRDPECLTPSYKSIPVKVTAARAPLAADRAVGRDGIVGREPGVETATGPSPVSLID", "soluble on expression in E. coli": "soluble"}]}]}
